In patent US20250064852A1 (University of Pennsylvania, published 2025):

Legend:
[1] = biological target: T1, recombinant human CD5 protein conjugated to a polyhistidine (His) tag at the C-terminus (Sino Biologicals); … (human, UniProt P06127 25-372); experiment: flow cytometry on CAR T cells, APC anti-6x His-tag secondary antibody
T1 construct: Bought reagent; also called recombinant CD5 protein; not shown: C-terminal polyhistidine tag
T1 sequence (looked up): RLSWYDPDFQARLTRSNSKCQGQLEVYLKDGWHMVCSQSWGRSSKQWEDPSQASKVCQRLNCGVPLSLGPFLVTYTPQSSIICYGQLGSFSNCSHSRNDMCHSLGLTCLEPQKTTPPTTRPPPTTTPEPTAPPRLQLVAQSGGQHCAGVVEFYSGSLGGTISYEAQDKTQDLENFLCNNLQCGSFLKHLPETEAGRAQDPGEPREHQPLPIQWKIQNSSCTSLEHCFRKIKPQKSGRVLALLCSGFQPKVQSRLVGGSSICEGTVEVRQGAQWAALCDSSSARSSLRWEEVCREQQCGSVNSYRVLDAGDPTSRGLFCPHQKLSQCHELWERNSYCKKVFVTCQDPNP
Description: General flow cytometry: Cells were resuspended in FACS staining buffer (phosphate buffered saline (PBS)+2% FBS) using one or more of the following antibodies: CD5 (UCHT2; BioLegend; Cat #300612), CD4, CD8 (RPA-T8; BD Biosciences; Cat #563795), CD45RA (L48; BD Biosciences; Cat #347723), CCR7 (G043H7; BioLegend; Cat #353214), PD1 (EH12.1; BD Biosciences; Cat #562516), LAG3 (3DS223H; Invitrogen; Cat #11-2239-42), CD3 (UCHT1; BD Biosciences; Cat #565119 or OKT3; BioLegend; Cat #317334), hCD45 (2D1; BioLegend; Cat #368522), or mCD45. CAR5 was detected by incubating cells with recombinant human CD5 protein conjugated to a polyhistidine (His) tag at the C-terminus (Sino Biologicals; Cat #11027-H08H) followed by an Allophycocyanin (APC) anti-6× His-tag secondary antibody (Abcam; Cat #ab72579). CARmeso was detected using a Biotin-SP goat anti-human F(ab′)₂ antibody (Jackson ImmunoResearch; Cat #109-066-097) followed by an R-Phycoerythrin (PE) streptavidin secondary antibody (Jackson ImmunoResearch; Cat #016-110-084). All changes in overall tumor or T cell counts reflected by absolute cell counts were determined using Flow-Count Fluorospheres (Beckman; Cat #754053). Cell viability was established using ViaKrome 808 Fixable Viability Dye (Beckman; Cat #C36628) and data were acquired on an LSRII Fortessa Cytometer (BD) or CytoFlex LX Flow Cytometer (Beckman). […]

human CD5 = biological target: T2, human CD5 (human, UniProt P06127 25-495); experiment: cell microarray (Retrogenix): labelled CAR T cells on fixed HEK293 cells expressing human membrane proteins; library and confirmation screen
T2 construct: whole, on cells; also called primary target CD5
T2 sequence (looked up): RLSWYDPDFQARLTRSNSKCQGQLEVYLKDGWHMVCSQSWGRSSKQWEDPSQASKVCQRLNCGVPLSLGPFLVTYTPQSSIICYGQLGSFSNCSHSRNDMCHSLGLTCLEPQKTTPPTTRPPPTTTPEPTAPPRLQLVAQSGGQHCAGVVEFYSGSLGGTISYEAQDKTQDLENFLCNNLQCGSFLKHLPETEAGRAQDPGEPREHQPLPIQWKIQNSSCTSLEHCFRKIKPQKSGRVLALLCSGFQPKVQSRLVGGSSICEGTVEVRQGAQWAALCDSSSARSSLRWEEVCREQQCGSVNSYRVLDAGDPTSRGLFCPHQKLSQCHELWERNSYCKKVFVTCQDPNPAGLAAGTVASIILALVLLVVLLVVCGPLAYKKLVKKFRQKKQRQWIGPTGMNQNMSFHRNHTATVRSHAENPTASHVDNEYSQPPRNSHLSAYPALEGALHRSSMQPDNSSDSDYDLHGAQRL
Description: CART5 on- and off-targeting specificity analysis: For a library screen, CD5 KO CART5 cells were fluorescently labelled and screened for binding against fixed HEK293 cells/slides expressing 5828 human plasma membrane proteins and cell surface tethered human secreted proteins+398 human heterodimers in duplicates (18 slide sets, n=2 slides per slide set, 3.2×10⁷ cells/slide). In total, 22 primary hits (duplicate spots) were identified by analyzing fluorescence (Alexa Fluor 647 and ZsGreen1) on ImageQuant. There were a range of intensities (signal to background) from very weak to strong. A confirmation screen was performed by testing Mock KO UTD and CD5 KO CART5 cell binding against all 22 hits in duplicate on new slides. Library and confirmation screens as well as analyses were performed at Retrogenix, Charles River Laboratories.

binding result [1]: binds
binding result (human CD5): binds
B1: CD5-17H2L-3054 CAR (anti-CD5 chimeric antigen receptor, clone #17, heavy-to-light chain orientation) (other)
chain: GSEVQLVESGPGLVQPSQSLSITCTVSGFSLTNYDVHWVRQSPGKGLEWLGVIWNYGNTDYNAAFISRLSIRKDSSKSQVFFTMSSLQTPDTAIYYCARNHGDGYYNWYFDVWGTGTTVTVSSGGGGSGGGGSGGGGSNIVLTQSPSSLSESLGGKVTITCKASQDINKYIAWYQYKPGKGPRLLIHYTSTLQPGIPSRFSGSGSGRDYSFSISNLEPEDIATYYCLQYDNLWTFGGGTKLEIKSRTTTPAPRPPTPAPTIASQPLSLRPEACRPAAGGAVHTRGLDFACDIYIWAPLAGTCGVLLLSLVITLYCHMKRGRKKLLYIFKQPFMRPVQTTQEEDGCSCRFPEEEEGGCELTSRVKFSRSADAPAYQQGQNQLYNELNLGRREEYDVLDKRRGRDPEMGGKPRRKNPQEGLYNELQKDKMAEAYSEIGMKGERRRGKGHDGLYQGLSTATKDTYDALHMQALPPR
notes: also called CAR5; anti-CD5 CAR
